Reference: US20240190987A1 (TIGATX, published 2024)
Positions count from the first letter of the chain named. Values belong to the binder of their own block, whether it stands above or below them.

Legend:
Ab0787 [1] = biological target: T1, Ab0787; assay: BLI 1-pt +indinavir
T1 construct: Fab, His-Tag, Avi-Tag; Ab0785 + HC I50M; also called LS2A R3M2; Ab787

Ab0787 [2] = biological target: T1, Ab0787; assay: BLI 5-pt +indinavir
Ab0786 = biological target: T2, Ab0786; assay: BLI +indinavir
T2 construct: Fab, His-Tag, Avi-Tag; Ab0785 + HC I50M+S58N; also called LS2A R3M1 Fab; biotinylated-Ab0786

B3: Ab0953 (antibody, V domains shown)
VH: EVQLVESGGGLVQPGGSLRLSCAASGFDFSSYSIHWVRQAPGKGLEWVASISPYYGSTYYADSVKGRFTISADTSKNTAYLQMNSLRAEDTAVYYCARYYEWYKYDLYLGSLGFDYWGQGTLVTVSS
VL: DIQMTQSPSSLSASVGDRVTITCRASQSVSSAVAWYQQKPGKAPKLLIYSASSLYSGVPSRFSGSRSGTDFTLTISSLQPEDFATYYCQQGAYSLITFGQGTKVEIK
notes: also called LS2B R6M22
Kd (Ab0787 [1]): 50 nM

B5: Ab1071 (Fab, V domains shown)
VH: B3 VH with L109A
VL: B3 VL with A92G
notes: also called LS2B R5M2 Fab
Kd (Ab0786): 79 nM

B6: Ab0937 (antibody, V domains shown)
VH: B3 VH with I51A
VL: B3 VL with A92G
notes: also called LS2B R6M3
Kd (Ab0787 [1]): 42 nM

B7: Ab0944 (antibody, V domains shown)
VH: B3 VH with D106A
VL: B3 VL with A92G
notes: also called LS2B R6M10
Kd (Ab0787 [1]): 100 nM

B8: Ab0941 (antibody, V domains shown)
VH: B3 VH with S57A
VL: B3 VL with A92G
notes: also called LS2B R6M7
Kd (Ab0787 [1]): 49 nM

More lines, now with the values ahead:

Kd (Ab0787 [1]): 5.7 nM
Kd (Ab0787 [2]): 1 nM
B1: Ab0936 (antibody, V domains shown)
VH: B3 VH with S50A
VL: B3 VL with A92G
notes: also called LS2B R6M2

Kd (Ab0787 [1]): 42 nM
B2: Ab0958 (antibody, V domains shown)
VH: B3 VH
VL: B3 VL with A92G, T97A
notes: also called LS2B R6M27

Kd (Ab0787 [1]): 40 nM
B4: Ab0939 (antibody, V domains shown)
VH: B3 VH with P53A
VL: B3 VL with A92G
notes: also called LS2B R6M5
